Data reported in patent publication US20110293620A1.
pKd: −log10 of the molar value.

Tests used:
[1] = target: recombinant PR1/HLA-A*0201 monomer (human); assay: SPR, Biacore; antibody captured on anti-mouse antibody surface, peptide/HLA-A2 as analyte
[2] = target: recombinant PR1/HLA-A*0201 monomer (human); assay: SPR (BIAcore 3000), BB7.2 captured on an anti-mouse antibody surface, PR1/HLA-A2 monomer (HLA-A2/beta2m/peptide) as analyte in a concentration series, 25 C, first-order kinetic fit; the box below the panel and the text round it to 162 nM

pKd [1]: 6.79
pKd [2]: 6.79
Substance: BB7.2 murine monoclonal antibody (HLA-A*0201 allele-specific mouse IgG2a)
